The values that follow come from doi:10.1101/2022.02.13.480285.

For the assay, the target named is SiaM (M-subunit of Photobacterium profundum SiaQM) (Photobacterium profundum). The assay can be described thus: AUC.

“SiaQ (Q-subunit of Photobacterium profundum SiaQM) (natural protein)” had a stoichiometry N (SiaQ per SiaM) of 1.
